Data reported in US20240360246A1 (BIO Y A S, published 2024).
Positions count from the first letter of the chain named.

Assays:
[1] = molecular target: T1, Human YKL-40 also known as Chitinase-3-like protein 1 (CHI3L1) (human, UniProt P36222 22-383); experiment: dot blot
T1 construct: Secreted protein purified from MG63 supernatant or purchased (Catalogue #2599-CH); also called hYKL-40
Protocol: A dot blot was performed by adding 0.4 μg and 0.2 μg of hYKL-40, 0.4 μg and 0.2 μg mYKL-40, 0.4 μg and 0.2 μg of calmodulin (negative control) and PBS (negative control) onto the nitrocellulose membrane. The membrane was incubated with B3 (SEQ ID NO: 3)-hFc.
A dot blot was performed by adding 0.4 μg and 0.2 μg of hYKL-40, 0.4 μg and 0.2 μg mYKL-40, 0.4 μg and 0.2 μg of calmodulin (negative control) and PBS (negative control) onto the nitrocellulose membrane. The area that the solution penetrates was minimized. The membrane was dried for 1 h at room temperature (RT). Afterwards the membrane was blocked in PBS with 0.1% Tween overnight at 4° C. followed by three washing steps with PBS with 0.1% Tween. The membrane was incubated with B3-hFc (1 μg/mL) in blocking buffer for 2 h at RT in a shaker followed by three washing steps with PBS with 0.1% Tween. The membrane was incubated with HRP anti-human secondary antibody for 2 hours at RT in shaker followed by three washing steps with PBS with 0.1% Tween. The western blot was developed with western blotting detection reagent.

[2] = molecular target: T1, Human YKL-40 also known as …; experiment: western blot
Protocol: For the western blot 0.5 μg hYKL-40 or mYKL-40 were loaded onto a 4-20% SurePAGE, Bis-TRIS gel. The gel was run at 120V for 70 min and afterwards the samples were transferred to a nitrocellulose membrane using iBlot system. The membrane was incubated with 1 μg/ml primary antibody B10 (SEQ ID NO: 4)-hFc.

[3] = molecular target: T1, Human YKL-40 also known as …; experiment: ELISA, plate coated with 2.5 µg/ml hYKL-40
Protocol: A 96-well ELISA plate were coated with 2.5 μg/ml hYKL-40 or 2.5 μg/ml calmodulin as control. 0.25 μg/ml (8), […] (7), 1 μg/ml (6), 2.5 μg/ml (5), 6.25 μg/ml (4), 12.5 μg/ml (3), 15 μg/ml (2) and 20 μg/ml (1) of the antibodies B3 (SEQ ID NO: 3)-mFc or B10 (SEQ ID NO: 4)-mFc were added.

[4] = molecular target: T1, Human YKL-40 also known as …; experiment: ELISA
Murine YKL-40 = molecular target: T2, Murine YKL-40 (mouse, UniProt Q61362 30-389); experiment: ELISA
T2 construct: Purchased (Catalogue #2649-CH); also called mYKL-40; mouse YKL-40

[5] = molecular target: T1, Human YKL-40 also known as …; experiment: phage ELISA

T1 sequence (P36222 22-383 limits assumed): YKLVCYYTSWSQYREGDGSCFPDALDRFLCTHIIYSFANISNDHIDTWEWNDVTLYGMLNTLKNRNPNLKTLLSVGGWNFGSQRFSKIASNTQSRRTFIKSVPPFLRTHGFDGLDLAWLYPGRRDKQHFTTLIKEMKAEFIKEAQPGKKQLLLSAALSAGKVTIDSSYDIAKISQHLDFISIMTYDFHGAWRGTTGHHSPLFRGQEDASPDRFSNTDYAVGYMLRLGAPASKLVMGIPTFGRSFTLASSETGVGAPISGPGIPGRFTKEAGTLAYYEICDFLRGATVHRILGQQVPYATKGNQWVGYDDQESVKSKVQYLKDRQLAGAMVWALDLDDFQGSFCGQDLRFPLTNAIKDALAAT
T2 sequence (Q61362 30-389 limits assumed): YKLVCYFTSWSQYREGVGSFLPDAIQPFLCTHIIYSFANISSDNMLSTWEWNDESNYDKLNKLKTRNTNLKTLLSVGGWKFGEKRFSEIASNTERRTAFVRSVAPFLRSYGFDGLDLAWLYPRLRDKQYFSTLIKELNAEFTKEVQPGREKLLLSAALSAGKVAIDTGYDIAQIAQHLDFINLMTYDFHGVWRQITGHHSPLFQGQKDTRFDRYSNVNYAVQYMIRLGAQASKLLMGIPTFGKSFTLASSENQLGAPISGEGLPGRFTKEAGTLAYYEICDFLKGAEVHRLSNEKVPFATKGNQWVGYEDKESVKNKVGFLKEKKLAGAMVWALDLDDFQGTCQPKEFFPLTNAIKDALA

B1: B3 (SEQ ID NO: 3) fused to a human Fc (hFc) (Fc fusion)
chain: MAEVQLLESGGGLVQPGGSLRLSCAASGFRDSDEDMGWVRQAPGKGLEWVSSISAPGGSTYYADSVKGRFTISRDNSKNTLYLQMNSLRAEDTAVYYCASHYNYGHWFDYWGQGTLVTVSSAAVECPPCPAPPVAGPSVFLFPPKPKDTLMISRTPEVTCVVVDVSHEDPEVQFNWYVDGMEVHNAKTKPREEQFNSTFRVVSVLTVVHQDWLNGKEYKCKVSNKGLPAPIEKTISKTKGQPREPQVYTLPPSREEMTKNQVSLTCLVKGFYPSDIAVEWESNGQPENNYKTTPPMLDSDGSFFLYSKLTVDKSRWQQGNVFSCSVMHEALHNHYTQKSLSLSPGK
notes: VH domain fused to human Fc; no linker stated; also called B3-hFc
B1: binds [1].

B2: B10 (SEQ ID NO: 4) fused to a human Fc (Fc fusion)
chain: B1 chain with P56D, G57S, H101D, G105W, H106Y
notes: VH domain fused to human Fc; no linker stated; also called B10-hFc
B2: binds [2].

B3: B3 (SEQ ID NO: 3) fused to murine Fc (mFc) (Fc fusion)
chain: MAEVQLLESGGGLVQPGGSLRLSCAASGFRDSDEDMGWVRQAPGKGLEWVSSISAPGGSTYYADSVKGRFTISRDNSKNTLYLQMNSLRAEDTAVYYCASHYNYGHWFDYWGQGTLVTVSSAARSPPLKECPPCAAPDLLGGPSVFIFPPKIKDVLMISLSPMVTCVVVDVSEDDPDVQISWFVNNVEVHTAQTQTHREDYNSTLRVVSALPIQHQDWMSGKEFKCKVNNRALPSPIEKTISKPRGPVRAPQVYVLPPPAEEMTKKEFSLTCMITGFLPAEIAVDWTSNGRTEQNYKNTATVLDSDGSYFMYSKLRVQKSTWERGSLFACSVVHEGLHNHLTTKTISRSLGK
notes: VH domain fused to murine Fc; no linker stated; also called B3-mFc; B3 mouse
B3: binds [3].

B4: B10 (SEQ ID NO: 4) fused to mFc (Fc fusion)
chain: B3 chain with P56D, G57S, H101D, G105W, H106Y
notes: VH domain fused to murine Fc; no linker stated; also called B10-mFc; B10 mouse
B4: binds [3].

B5: H7 antibody comprising a VL of SEQ ID NO: 14 and a VH of SEQ ID NO: 15 fused to human Fc regions (antibody, human IgG1, kappa, V domains shown)
VH: EVQLQQSGAELVKPGASVKLSCTASGFNIKDTYMHWVKQRPEQGLEWIGRIDPANGNTIYASKFQGKATITRDTSSNTAYMQLSSLTSGDTAVYYCTRGVYYYGGSFYAMDYWGQGTSVTVSS
VL: DIQMTQSPASLSASVGETVTITCGASENIYGALNWYQRKQGKSPQLLIYGATTLADGMSSRFSGSGSGRQYSLKISSLHPDDVATYYCQNVLTTPWTFGGGTKLEIKT
notes: Chimeric mouse/human antibody; also called H7-hFc
B5: binds [4]; binds (Murine YKL-40).

B6: B3 predator (phage antibody clone B3) (antibody, V domains shown)
VH: EVQLLESGGGLVQPGGSLRLSCAASGFRDSDEDMGWVRQAPGKGLEWVSSISAPGGSTYYADSVKGRFTISRDNSKNTLYLQMNSLRAEDTAVYYCASHYNYGHWFDYWGQGTLVTVSS
B6: binds [5].

B7: B10 predator (phage antibody clone B10) (antibody, V domains shown)
VH: B6 VH with P54D, G55S, H99D, G103W, H104Y
B7: binds [5].
